Experimental findings from patent publication US20240124586A1 are described below.

A word on the EC50 (read off the curve): it is the midpoint of the concentration-response curve. Low values mean an effect from little substance, high ones a need for much substance.

Test [1] has as its target human C1Q (human) (UniProt P02745). Kind of test: ELISA, antibody coated on the plate, C1q titrated (axis: [C1q] nM), anti-C1q-HRP detection.
For test [2] the target is unchanged. The test is described as follows: ELISA, antibody coated on the plate, C1q titrated (the concentration is that of C1q). On the technique in general: ELISA stands for enzyme-linked immunosorbent assay.
Test [3] deals with human CD19 on CD19+ B cell lines (Ramos, Raji) (human) (UniProt P15391). The test is described as follows: FACS bridging of pre-labelled Jurkat (CD3+) and Raji (CD19+) cells mixed 1:1, negative control.
Chain of human CD19 on CD19+ B cell lines (Ramos, Raji) (human) (P15391 20-556): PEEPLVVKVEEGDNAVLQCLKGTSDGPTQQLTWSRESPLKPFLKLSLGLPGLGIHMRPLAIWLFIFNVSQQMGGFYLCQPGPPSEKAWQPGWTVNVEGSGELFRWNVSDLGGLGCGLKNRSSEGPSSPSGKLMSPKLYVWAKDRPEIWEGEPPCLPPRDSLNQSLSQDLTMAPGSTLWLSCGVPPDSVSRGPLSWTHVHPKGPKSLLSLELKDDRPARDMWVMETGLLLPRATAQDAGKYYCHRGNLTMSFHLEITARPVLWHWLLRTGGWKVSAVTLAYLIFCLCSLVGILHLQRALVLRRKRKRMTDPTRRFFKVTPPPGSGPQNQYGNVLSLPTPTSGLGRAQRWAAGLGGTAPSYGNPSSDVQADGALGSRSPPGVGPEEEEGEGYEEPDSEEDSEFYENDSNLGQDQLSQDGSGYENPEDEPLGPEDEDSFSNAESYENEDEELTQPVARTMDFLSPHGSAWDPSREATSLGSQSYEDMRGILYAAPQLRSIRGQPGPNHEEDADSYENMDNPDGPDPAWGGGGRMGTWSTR
Test [4] deals with human CD3 on CD3+ Jurkat cells (human) (UniProt P07766). Described as above.
Chain of human CD3 on CD3+ Jurkat cells (human) (P07766 23-207, chain 1 of 3): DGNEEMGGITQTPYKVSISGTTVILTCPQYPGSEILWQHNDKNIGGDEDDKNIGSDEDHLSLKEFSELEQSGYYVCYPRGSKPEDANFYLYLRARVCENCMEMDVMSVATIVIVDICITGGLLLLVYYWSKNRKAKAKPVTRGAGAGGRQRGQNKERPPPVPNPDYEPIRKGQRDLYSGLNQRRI
Chain of human CD3 on CD3+ Jurkat cells (human) (P09693 23-182, chain 2 of 3, further chain): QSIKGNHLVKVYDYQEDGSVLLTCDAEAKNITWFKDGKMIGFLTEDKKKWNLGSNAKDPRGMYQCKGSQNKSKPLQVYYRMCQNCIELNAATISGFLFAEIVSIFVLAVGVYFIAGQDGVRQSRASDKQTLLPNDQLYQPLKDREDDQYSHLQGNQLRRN
Chain of human CD3 on CD3+ Jurkat cells (human) (P04234 22-171, chain 3 of 3, further chain): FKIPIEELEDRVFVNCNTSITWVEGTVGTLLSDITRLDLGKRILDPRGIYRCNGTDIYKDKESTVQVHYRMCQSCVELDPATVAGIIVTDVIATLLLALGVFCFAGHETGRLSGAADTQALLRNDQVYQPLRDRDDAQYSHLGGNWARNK

Chain of human C1Q (human) (P02745 23-245 limits assumed, chain 1 of 3): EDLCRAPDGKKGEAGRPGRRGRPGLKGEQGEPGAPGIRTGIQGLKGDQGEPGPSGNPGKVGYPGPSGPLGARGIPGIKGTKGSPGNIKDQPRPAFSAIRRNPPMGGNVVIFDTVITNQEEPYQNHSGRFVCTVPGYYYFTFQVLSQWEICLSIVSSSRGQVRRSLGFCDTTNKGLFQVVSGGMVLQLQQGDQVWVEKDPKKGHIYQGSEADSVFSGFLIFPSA
Chain of human C1Q (human) (P02746 28-253 limits assumed, chain 2 of 3, further chain): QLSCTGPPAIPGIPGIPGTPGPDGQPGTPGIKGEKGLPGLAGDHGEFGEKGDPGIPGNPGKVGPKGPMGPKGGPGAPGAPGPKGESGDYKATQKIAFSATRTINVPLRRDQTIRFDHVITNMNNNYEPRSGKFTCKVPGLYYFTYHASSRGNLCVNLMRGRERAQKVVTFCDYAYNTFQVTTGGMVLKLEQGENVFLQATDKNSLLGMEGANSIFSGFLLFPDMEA
Chain of human C1Q (human) (P02747 29-245 limits assumed, chain 3 of 3, further chain): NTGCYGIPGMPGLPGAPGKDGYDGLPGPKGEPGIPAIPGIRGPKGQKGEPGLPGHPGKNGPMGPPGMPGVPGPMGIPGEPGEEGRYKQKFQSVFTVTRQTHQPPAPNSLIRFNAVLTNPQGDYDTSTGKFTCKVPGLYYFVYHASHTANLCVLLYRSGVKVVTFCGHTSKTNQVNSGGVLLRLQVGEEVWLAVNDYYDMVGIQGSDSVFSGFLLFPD

As to control human IgG1 antibody, the EC50 (read off the curve) in the test with human C1Q (human) [1] and with human C1Q (human) [2] was 30 nM throughout.
irrelevant IgG (antibody): the Q2 % (events positive for both the CD3+ and the CD19+ cell label) in test [3] and in test [4] was 4.91% throughout.
